Assay results published in patent publication US20240343803A1 (SHANDONG SIMCERE BIOPHARMACEUTICAL, published 2024).
Substitutions are numbered along the chain they refer to.

T1: human PVRIG-mFc protein (Acro, PVG-H5253) (human, UniProt Q6DKI7 41-171, limits assumed)
T1 construct: extracellular domain; Bought protein; also called PVRIG-ECD-mFc; not shown: mouse Fc tag of the bought protein
T1 sequence (looked up): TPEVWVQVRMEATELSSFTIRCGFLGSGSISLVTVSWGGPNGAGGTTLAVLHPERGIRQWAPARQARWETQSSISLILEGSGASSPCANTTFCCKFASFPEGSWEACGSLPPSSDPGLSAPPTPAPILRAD

B1: PVRIG-A118-H1 (Fc fusion)
chain: EVQLVESGGGLVQPGGSLRLSCAASETYFDLYVMGWYRQAPGKDRELVATITYTGSIYYVDSVKGRFTISRDNAKNSLYLQMNSLRAEDTAVYYCNADPSGLGRKVYWGQGTMVTVSS
notes: VHH-human IgG1 Fc format is stated for the parental VHH antibodies; not restated for the humanized variants; also called A118.VH1; not shown: human IgG1 hinge-CH2-CH3 (Fc)
B2: PVRIG-A118-H5 (Fc fusion)
chain: B1 chain with Y58K, D72G, N73D, L78V
notes: VHH-human IgG1 Fc format is stated for the parental VHH antibodies; not restated for the humanized variants; also called A118.VH5; not shown: human IgG1 hinge-CH2-CH3 (Fc)
B3: PVRIG-A118-H6 (Fc fusion)
chain: B1 chain with Y58K, Y59I, D72G, N73D
notes: VHH-human IgG1 Fc format is stated for the parental VHH antibodies; not restated for the humanized variants; also called A118.VH6; not shown: human IgG1 hinge-CH2-CH3 (Fc)
B4: PVRIG-A118-H4 (Fc fusion)
chain: B1 chain with Y58K, D72G, N73D, Y79S
notes: VHH-human IgG1 Fc format is stated for the parental VHH antibodies; not restated for the humanized variants; also called A118.VH4; not shown: human IgG1 hinge-CH2-CH3 (Fc)
B5: PVRIG-A118-H2 (Fc fusion)
chain: B1 chain with Y58K
notes: VHH-human IgG1 Fc format is stated for the parental VHH antibodies; not restated for the humanized variants; also called A118.VH2; not shown: human IgG1 hinge-CH2-CH3 (Fc)
B6: PVRIG-A50-H1 (Fc fusion)
chain: EVQLVESGGGLVQPGGSLRLSCAASGFTFSYYDMSWVRQAPGKGLEWVSTINSNGGRTSYVDSVKGRFTISRDNSKNTLYLQMNSLRAEDTAVYYCVEGDPHNFGLENLSLRDFGSWGQGTMVTVSS
notes: VHH-human IgG1 Fc format is stated for the parental VHH antibodies; not restated for the humanized variants; also called A50.VH1; not shown: human IgG1 hinge-CH2-CH3 (Fc)
B7: PVRIG-A50-H2a (Fc fusion)
chain: B6 chain with G55A, S75T, N108S
notes: VHH-human IgG1 Fc format is stated for the parental VHH antibodies; not restated for the humanized variants; also called A50.VH2a; not shown: human IgG1 hinge-CH2-CH3 (Fc)
B8: PVRIG-A50 (Fc fusion)
chain: B6 chain with S75T, R87K, A88P, M122Q
notes: Alpaca VHH expressed as VHH-hinge-CH2-CH3 of human IgG1 (heavy-chain antibody); also called PVRIG-50; not shown: human IgG1 hinge-CH2-CH3 (Fc)
B9: PVRIG-A50-H1c (Fc fusion)
chain: B6 chain with N54D, S110A
notes: VHH-human IgG1 Fc format is stated for the parental VHH antibodies; not restated for the humanized variants; also called A50.VH1c; not shown: human IgG1 hinge-CH2-CH3 (Fc)
B10: PVRIG-A50-H1e (Fc fusion)
chain: B6 chain with G55A, N108S
notes: VHH-human IgG1 Fc format is stated for the parental VHH antibodies; not restated for the humanized variants; also called VH1e; not shown: human IgG1 hinge-CH2-CH3 (Fc)
B11: PVRIG-A50-H1a (Fc fusion)
chain: B6 chain with N54D
notes: VHH-human IgG1 Fc format is stated for the parental VHH antibodies; not restated for the humanized variants; also called A50.VH1a; not shown: human IgG1 hinge-CH2-CH3 (Fc)
B12: PVRIG-A50-H1d (Fc fusion)
chain: B6 chain with N108S
notes: VHH-human IgG1 Fc format is stated for the parental VHH antibodies; not restated for the humanized variants; also called A50.VH1d; not shown: human IgG1 hinge-CH2-CH3 (Fc)

Molecular target: T1, human PVRIG-mFc protein (Acro, …)
Test: FACS blocking of PVRIG-mFc binding to CHO-K1-CD112 cells; competitor CD112
Method in brief: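 Zombie violet-stained CHO-K1-CD112 cells were added for 30 min at 4° C, then PE goat anti-mouse IgG Fc (1:250) was applied and mean fluorescence intensity read on a BD Canto II. Curves were fitted with four-parameter logistic models in GraphPad Prism 9. IC50 and curve AUC were reported as percentages of the reference antibody values.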

Binder	% AUC to COM701-hIgG4	% AUC to SO35-hIgG1	% AUC to parental Ab	% IC50 to COM701-hIgG4	% IC50 to SO35-hIgG1	% IC50 to parental Ab
B1	120%	62.4%	101%	141%	95.4%	100%
B2	127%	66.1%	107%	144%	97.4%	102%
B3	119%	61.7%	100%	145%	97.8%	103%
B4	116%	60.4%	97.9%	141%	95.4%	100%
B5	142%	73.7%	120%	161%	109%	115%
B6	115%	67.8%	94%	101%	78%	86.1%
B7	112%	66%	91.6%	118%	91.7%	101%
B8	122%	72.1%	100%	117%	90.6%	100%
B9	132%	77.7%	108%	122%	94.7%	105%
B10	126%	74.1%	103%	130%	101%	111%
B11	125%	73.5%	102%	120%	93%	103%
B12	121%	71.1%	98.7%	115%	89.1%	98.4%
